In paper doi:10.1101/2020.09.09.287375 one finds dH and stoichiometry N data, which are given here for one substance.

The target of this assay is human serum albumin (human) (UniProt P02768). As to the kind of experiment: ITC.

Substance dalbavancin (peptide) yielded a dH of -8.9 kcal/mol and a stoichiometry N of 0.84.
